Where no end group is shown, it is not given here.
T1: calcitonin receptor (human, UniProt P30988 25-474)
T1 sequence (looked up): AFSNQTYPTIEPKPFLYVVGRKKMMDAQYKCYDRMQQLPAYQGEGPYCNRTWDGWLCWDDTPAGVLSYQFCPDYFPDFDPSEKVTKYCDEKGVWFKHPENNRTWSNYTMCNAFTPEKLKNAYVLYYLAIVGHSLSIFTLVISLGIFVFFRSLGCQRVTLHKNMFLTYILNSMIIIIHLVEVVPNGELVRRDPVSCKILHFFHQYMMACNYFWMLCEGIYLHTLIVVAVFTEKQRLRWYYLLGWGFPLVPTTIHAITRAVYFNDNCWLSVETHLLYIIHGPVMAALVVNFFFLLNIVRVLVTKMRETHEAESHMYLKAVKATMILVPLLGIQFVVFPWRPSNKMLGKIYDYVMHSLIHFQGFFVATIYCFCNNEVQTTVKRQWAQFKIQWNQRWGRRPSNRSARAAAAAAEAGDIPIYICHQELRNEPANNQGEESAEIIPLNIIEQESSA


Molecular target: T1, calcitonin receptor
Assay: cell-based or functional assay

Row | Binder | intracellular cAMP in T47D cells, % of native sCT activity, at 50 nM [%] | intracellular cAMP in T47D cells, % of native sCT activity, at 100 nM [%] | intracellular cAMP in T47D cells, % of native sCT activity, at 10 mM (so in the source) [%]
1 | CSNLSTCVLGKLSQELHKLQTYPRTNTGSGTP (ends and bridges not checked; also: mixture of mono-, di- and tri-substituted: SMCC group in amide bond on Lys11, Lys18 and/or N-terminus) [sCT-SMCC] | 98 | 115 | 94.3
2 | CSNLSTCVLGKLSQELHKLQTYPRTNTGSGTP (ends and bridges not checked; also: mixture: SMCC linker carrying thiol bisphosphonate on Lys11, Lys18 and/or N-terminus (2-3 SMCC, 1-3 BP)) [sCT-BP] | 102 | 99.8 | 92.8

— US20120270787A1 (GOVERNORS OF THE UNIVERSITY OF ALBERTA, published 2012)
